Reference: patent EP3470428A1 (Numab Innovation AG, dated 2019)
Values joined by “and” are separate entries in the source; they are usually repeats but may differ in a detail not shown here. Equal values may be shown once. Read-outs that look alike come from different tables or passages of the source. Values belong to the binder of their own block, whether it stands above or below them.

What was measured:
[1] = target: T1, human CD137 expressed on cells (human, UniProt Q07011 24-255); test: cell-based or functional assay
[2] = target: T1, human CD137 expressed on cells; test: cell-based or functional assay; remark: listed apart in the source
[3] = target: T1, human CD137 expressed on cells; test: cell-based or functional assay; remark: listed apart in the source
[4] = target: T1, human CD137 expressed on cells; test: cell-based or functional assay; remark: listed apart in the source
[5] = target: T1, human CD137 expressed on cells; test: cell-based or functional assay; remark: listed apart in the source
[6] = target: T1, human CD137 expressed on cells; test: cell-based or functional assay; remark: listed apart in the source
[7] = target: T1, human CD137 expressed on cells; test: cell-based or functional assay; remark: listed apart in the source
biotinylated human PD-L1 [8] = target: T2, biotinylated human PD-L1 (human, UniProt Q9NZQ7 19-238, limits assumed, biotinylated); test: competition ELISA; coated human B7.1 as competitor; biotinylated PD-L1 pre-incubated with inhibitor
T2 construct: also called biotinylated PD-L1

[9] = target: T3, human PD-L1 expressed on cells (human, UniProt Q9NZQ7 19-290); test: cell-based or functional assay
[10] = target: human PD-L1-Fc chimeric protein (human, UniProt Q9NZQ7 19-239); test: SPR (Biacore T200); PD-L1-Fc captured by anti-human Fc
biotinylated human PD-L1 [11] = target: T2, biotinylated human PD-L1; test: competition ELISA; coated human PD-1 as competitor; biotinylated human PD-L1 pre-incubated with inhibitor
[12] = target: T3, human PD-L1 expressed on cells; test: cell-based or functional assay; remark: listed apart in the source
[13] = target: T1, human CD137 expressed on cells; test: cell-based or functional assay; remark: listed apart in the source

EC50 in ng/ml, CD137 activation, NFkB-luciferase Jurkat reporter assay, PD-L1 expressing CHO cells, 6h [1]: 56.5 ng/mL | EC50 in ng/ml, CD137 activation, NFkB-luciferase Jurkat reporter assay, PD-L1 expressing CHO cells, 6h, + HSA [1]: 77.7 ng/mL | EC50 in ng/ml, CD137 activation, NFkB-luciferase Jurkat reporter assay, HCC827 cells without IFNg [2]: 212 ng/mL and 110 ng/mL and 112 ng/mL | EC50 in ng/ml, CD137 activation, NFkB-luciferase Jurkat reporter assay, HCC827 with IFNy stimulation, 24h [3]: 52.8 ng/mL | EC50 in ng/ml, CD137 activation, NFkB-luciferase Jurkat reporter assay, HCC827 without IFNy stimulation, 24h [3]: 47.5 ng/mL | EC50 in ng/ml, CD137 activation, NFkB-luciferase Jurkat reporter assay, CHO-PD-L1 cells [4]: 79.1 ng/mL | EC50 in ng/ml, CD137 activation, NFkB-luciferase Jurkat reporter assay, PD-L1 expressing CHO cells, 24h [5]: 46.6 ng/mL | EC50 in ng/ml, CD137 activation, NFkB-luciferase Jurkat reporter assay, PD-L1 expressing CHO cells, 24h, + HSA [5]: 78.2 ng/mL | EC50 in ng/ml, CD137 activation, NFkB-luciferase Jurkat reporter assay, HCC827 cells stimulated with IFNg [6]: 114 ng/mL and 145 ng/mL and 108 ng/mL | EC50 in ng/ml, CD137 activation, NFkB-luciferase Jurkat reporter assay, CHO-PD-L1 cells [7]: 79.5 ng/mL and 104 ng/mL and 86.5 ng/mL
B1: Urelumab (antibody, V domains shown)
VH: QVQLQQWGAGLLKPSETLSLTCAVYGGSFSGYYWSWIRQSPEKGLEWIGEINHGGYVTYNPSLESRVTISVDTSKNQFSLKLSSVTAADTAVYYCARDYGPGNYDWYFDLWGRGTLVTVSS
VL: EIVLTQSPATLSLSPGERATLSCRASQSVSSYLAWYQQKPGQAPRLLIYDASNRATGIPARFSGSGSGTDFTLTISSLEPEDFAVYYCQQRSNWPPALTFGGGTKVEIK

IC50 (biotinylated human PD-L1 [8]): 6.36 ng/mL | EC50 in ng/ml, IL-2 secretion, PBMC stimulated with SEA [9]: 40.9 ng/mL | fold higher affinity against the STR graft of clone 33-03-G02 [10]: ~2 fold | IC50 (biotinylated human PD-L1 [11]): 0.5 ng/mL | IC50 (ng/ml), neutralization of PD-L1/PD-1 interaction, NFAT-luciferase reporter gene assay [12]: 11.1 ng/mL
B2: PRO997 (anti-PD-L1 scFv, CDR set of clone 37-20-B03 grafted on a VH4 framework) (scFv)
chain: DIQMTQSPSSLSASVGDRVTITCQASQSIGTYLAWYQQKPGKAPKLLIYRAFILASGVPSRFSGSGSGTDFTLTISSLQPEDFATYYCQSNFYSDSTTIGPNAFGTGTKVTVLGGGGGSGGGGSGGGGSGGGGSQVQLQESGPGLVKPSETLSLTCKVSGFSFNSDYWIYWIRQPPGKGLEWIGSIYGGSSGNTQYASWAQGRVTISVDSSKNQFSLKLSSVTAADTAVYYCARGYVDYGGATDLWGQGTLVTVSS

IC50 (biotinylated human PD-L1 [8]): 9.3 ng/mL | max. activation (%), NF-kB reporter gene, CHO-PD-L1; HSA: no [13]: 432% | EC50 in ng/ml, CD137 activation, NFkB-luciferase Jurkat reporter assay, CHO-PD-L1 cells [4]: 33.7 ng/mL | IC50 (biotinylated human PD-L1 [11]): 9.5 ng/mL | IC50 (ng/ml), neutralization of PD-L1/PD-1 interaction, NFAT-luciferase reporter gene assay [12]: 88.5 ng/mL
B3: PRO951: 38-27-C05 sc02 scDb-i/33-03-G02 sc01 scDb-o (bispecific antibody)
chain: DIQMTQSPSSLSASVGDRVTITCQASQSINDYLAWYQQKPGKAPKLLIYKASTLASGVPSRFSGSGSGTDFTLTISSLQPEDFATYYCQQGYIITDIDNVFGTGTKVTVLGGGGGSEVQLVESGGGLVQPGGSLRLSCAASGFSFNNDYDMCWVRQAPGKGLEWIGCIDTGDGSTYYASWAKGRFTISRDNSKNTVYLQMNSLRAEDTAVYYCAREAASSSGYGMGYFDLWGQGTLVTVSSGGGGSGGGGSGGGGSGGGGSIQMTQSPSSLSASVGDRVTITCQSSQSVYDNNWLAWYQQKPGKAPKLLIYRASNLASGVPSRFSGSGSGTDFTLTISSLQPEDFATYYCQGTYLSSNWYWAFGTGTKVTVLGGGGGSQVQLQESGPGLVKPSETLSLTCKVSGFSFSSGYDMCWIRQPPGKGLEWIGCVVAGSVDITYYASWAKGRVTISVDSSKNQFSLKLSSVTAADTAVYYCARKDAYSDAFNLWGQGTLVTVSS
notes: anti-PD-L1xCD137 scDb
